The text below walks through data of the nanobody polyreactivity screen of Harvey et al. (2022).

A short description of the series: yeast display, Sf9 membrane polyspecificity reagent, FACS + sequencing; frameworks hold sequencing errors. In outline: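 Galactose induction of a Saccharomyces cerevisiae BJ5465 synthetic nanobody display library ran 36–48 hours. The cells were then stained for 1 hour at 4 °C with 10% biotinylated, detergent-solubilized Sf9 membrane reagent, pulled down on streptavidin microbeads and FACS-sorted into low and high (top ~1%) gates on expression and reagent-binding fluorescence. Labels for polyreactivity follow the gate of origin.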
As to “QVQLVESGGGLVQAGGSLRLICAASGSTQVYYAMGWYRQAPGKETELVASINHSGARTRYADSVKGRFTISRDNAKNTVYLQMNSLKPEVTAVYYCAAVARSTTYRYNYWGQGTQVTVSS”, the “polyreactivity (PSR sort gate)” value was “high polyreactivity”.
Turning to “QVQLVESGGGLVQAGGSLRLICAASGSTRRYVMGWYRQAPGKERELVAVISRGGSTYYADSVKGRFTISRDNAKNTVYLQMNSLKPEDTAVYYCNVQPVIPRGGDYWGQGTQVTVSS”, the “polyreactivity (PSR sort gate)” value is “high polyreactivity”.
In the case of “QVQLVESGGGLVQAGGSLRLICAASGSTSPYYTRGWYRQAPGKERELVASINESGGSTYYADSVKARFTISRDNAKNTVYLQMHTLKPEDTAGYNCNAEYTTPSYPVYSIDYYWFDYWGQGTQVTVSS”, the “polyreactivity (PSR sort gate)” value is “low polyreactivity”.
With “QVQLVESGGGLVQAGGSLRLICAASGYIFRDYAMGWYRQAPGKERELVATISSGGSTSYADSVKGRFTISRDNAKNTVYLQMNSLKPEDTAVYYCAADVANTSAEYYYWGQGTQVTVSS” the entry was “low polyreactivity”.
In the case of “QVQLVESGGGLVQAGGSLRLICAASGYIFRPNAMGWYRQAPGKERELVASISSGGSTYYADSVKGRFTISRDNAKNTVYLQMNSLKPEDTAVYYCNARHYPWFAAYGSYAYEYWGQGTQVTVSS”, the “polyreactivity (PSR sort gate)” value is listed as “low polyreactivity”.
For “QVQLVESGGGLVQAGGSLRLICAASGYTFPRYTMGWYRQAPGKERELVAAITSSGSTNYADSVKGRFTISRDNAKNTVYLQMNCLKPEDTAVYYCATLYRDWWSGYLEVDYWGQGTQVTVSS”, the “polyreactivity (PSR sort gate)” value is recorded as “high polyreactivity”.
Consider “QVQLVESGGGLVQAGGSLRLICAASGYTFTGYAMGWYRQAPGKEREFVAGITWRTGRTYYADSVNGRFTISRDNAKNTVYLQMNSLKPEDTAVYYCAAVPWKRYDYYTPFARGYWGQGTQVTVSS”, for which the “polyreactivity (PSR sort gate)” value was “low polyreactivity”.
Regarding “QVQLVESGGGLVQAGGSLRLICAASGYTLATYTMRWYIQAPGKERELVAAISFGGSTYYADSVKGRFTISRDNAKNTVYLQMNSLKPEDTAVYYCAVYGDSYWGAYYYSDGYWGQGTQVTVSS”, the “polyreactivity (PSR sort gate)” value is “low polyreactivity”.
“QVQLVESGGGLVQAGGSLRLICAASRFTYYRNVMGWYRQAPGKERELVAPISRRGDRTYADSVKGRFTISRDNAKNTVYLQMNSLKPEDTAVYYFAPTPYSYWTRYYYWGQGTQVTVTS”: the “polyreactivity (PSR sort gate)” value is recorded as “high polyreactivity”.
Turning to “QVQLVESGGGLVQAGGSLRLICAATGFTFLFYDMGWYRQAPGKERALVAASTSDGSTYYADSVKGRFTISRDNAKNTVYLQMNSLKPEDTAVYYCNADEPDEAYLYQSDYWGQGTQVTVSS”, the “polyreactivity (PSR sort gate)” value is given as “low polyreactivity”.
Consider “QVQLVESGGGLVQAGGSLRLICADSGRIFNRYAMGWYRQAPGKEREFVAGITWNGGSTYYADSVKGRFTISRDNSKNTVNLQMNSLKPEDTAVYYCAATHYYYGTSRYDYWGQGTQVTVSS”, for which the “polyreactivity (PSR sort gate)” value is recorded as “high polyreactivity”.
Take “QVQLVESGGGLVQAGGSLRLICADSGSTFSPNGMGWYTQAHGKERELVAAITSVGSTYYAESVEGRFTISRDNELNTVYFQMNSLQPVDTAVFYCAKGQRDSEEYDYWGQGTQVTVSS”: the “polyreactivity (PSR sort gate)” value was “low polyreactivity”.
As to “QVQLVESGGGLVQAGGSLRLICDASGLTFIRNAMGCYRQATGKERELVAAITRRGGSTYYADSVKGRFTISRDNAKNTVYLQMHSLQPEDTPVDYCARRLYPSASYDYDYWGQGTQETVSS”, the “polyreactivity (PSR sort gate)” value is listed as “high polyreactivity”.
With “QVQLVESGGGLVQAGGSLRLICYASGSIFWVYAMGWYRQAPGKEWELVADIRYRDGSTHYADSVKGRFTISRDNAKNTVYLQMNSLKPEDTAVYYCAADDLPSTGYDYWGPGTQVTVSS”, the “polyreactivity (PSR sort gate)” value is “low polyreactivity”.
Consider “QVQLVESGGGLVQAGGSLRLIFAASGRTFVLNAMRWYRQAPGKEREFVAAISWGGVRTYYADSVKGRFTISRDNAKNTVYLQMNSLKPEDTAVYYCATCGSRYRRYDYWGQGTQVTVSS”, for which the “polyreactivity (PSR sort gate)” value is recorded as “high polyreactivity”.
Take “QVQLVESGGGLVQAGGSLRLISAASGNIVYFNAMGWYRQAPGKERELVAAISRAGSTYYADSVKGRFTISRDNAKNTVYLQMNSLKQEDTAVYYCAATTGRPDNYYYWGQGTQVTVSS”: the “polyreactivity (PSR sort gate)” value was “high polyreactivity”.
As for “QVQLVESGGGLVQAGGSLRLNCAASGSIFDDYAMGWYRQAPGKERELVAAINIRTGSTYYADSEKGRFTISRDNAKNTVYLQMNSLKPEDTAVYYCNSVVRGFVRHLDYWGQGTQVTVSS”, the “polyreactivity (PSR sort gate)” value was “low polyreactivity”.
With “QVQLVESGGGLVQAGGSLRLNCAASGSIFDKNAMGWYRQAPGKERELVAAISRSGGSTYYADSVKGRFTISRDNAKNTVYLQMNSLKPEVTAVYYCNKYTNGRNFDYWGQGTQVTVSS”, the “polyreactivity (PSR sort gate)” value is given as “high polyreactivity”.
On to “QVQLVESGGGLVQAGGSLRLNCAASGSIFLIYAMGWYRQATGKERELVAGINWSGSRTYNADSVKGRFTISRDNAKNTVYLQMNSLKPEDTAVYYCAARVRRPLYSAYDSWGQGTQVTVSS”, for which the “polyreactivity (PSR sort gate)” value is “low polyreactivity”.
Consider “QVQLVESGGGLVQAGGSLRLNCAASGSIFTGNAMGWYRQAPGKERELVASITTSTDSTYYADSVKGRFTISRDNAKNTVYLQMNRLKTEDTAVYYCAAEYAVAWKYGLYFYFHFDYWGQGTQVTVSS”, for which the “polyreactivity (PSR sort gate)” value was “low polyreactivity”.
With “QVQLVESGGGLVQAGGSLRLRCAASGFIFQINAMGWYRQAPGKEREFVAAISRSVGSTSYADSVKGRFTISRDNAKNTVYLQMNSLKPEDTAVYYCNAAQRKRKGPYDYWGQGTQVTVSS” the entry was “high polyreactivity”; with “QVQLVESGGGLVQAGGSLRLRCAASGFIYIRNAMGWYRQAPGKERELVAAITRSGGRTYYADSVKGRFTISRDNAKNTVYLQMNSLIPEDTAVYYCASDAEAAWGQGTQVTVSS”, “high polyreactivity”.
As for “QVQLVESGGGLVQAGGSLRLRCAASGFTFQNYVMGWYRQAPGKESELVAAINSGGRTYYADSVKGRFTISRDYANNTVYLQMNSLKPEDTAVYFCKDRRGHYWGQGTQVTVSS”, the entry is “high polyreactivity”; as for “QVQLVESGGGLVQAGGSLRLRCAASGFTFYWYAMGWYRQAPGKEREIVAAIDQSGGSTYYADSVKGRFTISRDNAKNSVYLQMNSLKQEDTAVYYCAARYILWDGDSWTEFDYWGQGTQVTVSS”, “low polyreactivity”; as for “QVQLVESGGGLVQAGGSLRLRCAASGIIFTDYAMGWYRQAPGKERELVAAISSGGGSTYYAHSVKGRFTISRDNAKNTVYFLMNSLKPDVTAVYYCAAEGYLISGAGDYLYDYYWGQGTQVTVSS”, “high polyreactivity”.
As to “QVQLVESGGGLVQAGGSLRLRCAASGIIFYGNAMGWYRPAPGQERELVAAISRRSGSTYYADSVKGRFTISRDTAKNTVYLQMNSLKPEDTAVYYGNKRAANAVTINDMDYWGQGTQVTVSS”, the “polyreactivity (PSR sort gate)” value is reported as “high polyreactivity”.
On to “QVQLVESGGGLVQAGGSLRLRCAASGIIFYRNVMGWYRQAPGKERELVAAISGRGGSTYYADSVKGRFTISRDNAKNTVYLQMNILKPEETAVYYCATDTRTWRFTRGAWYTYGSDYWGQGTQVTVSS”, for which the “polyreactivity (PSR sort gate)” value is reported as “high polyreactivity”.
Regarding “QVQLVESGGGLVQAGGSLRLRCAASGLIFIFNAMGWYRQAPGKERELVAAIDTSDDSTYYADSVKGRFTISRDNAKNTVYLQMNSMKPEDTAVYYCAAEELSNYEYWGQGTQVTVSS”, the “polyreactivity (PSR sort gate)” value was “low polyreactivity”.
In the case of “QVQLVESGGGLVQAGGSLRLRCAASGLTFRKYPMGWYRPAPGKERELVATISRNGGSTYSADSVKGRFTISSDNAKITVYLQMNSLKPEDTAVYYCAADYYTYDYAGYGYWGQGTQVTVSS”, the “polyreactivity (PSR sort gate)” value is listed as “high polyreactivity”.
For the sequence “QVQLVESGGGLVQAGGSLRLRCAASGLTYSNAMGWYRQAPGKERELVAAISWRGGRTYYADSVKGRFTISRDNAKNTVYLQMNSLKPEDTAVYYCAKYAHGHKWYGYWGQGTQVTVSS”, the “polyreactivity (PSR sort gate)” value is listed as “low polyreactivity”.
For “QVQLVESGGGLVQAGGSLRLRCAASGRIFGYNDMGWYRQAPGKERELVAAINWTGGSTYYADSVKARFTISRDNSKNTVYLQMNSLKPEDTAVYYCNADARTKWVQTHTDFISDYDYWGQGTQVTVSS”, the “polyreactivity (PSR sort gate)” value was “low polyreactivity”.
With “QVQLVESGGGLVQAGGSLRLRCAASGRIFNNYAMGWYRPAPGKERELVAAISGSGGSTYYADSVKGRFTISRDNAKNNVYLQMNSLKPEDTAVYYCSTSGPHYFSRNFDYWGQGTQVTVSS”, the “polyreactivity (PSR sort gate)” value is “low polyreactivity”.
As for “QVQLVESGGGLVQAGGSLRLRCAASGRIFVENAMGWYRQAPGKERELVATISSGDSTNYADSVKGRFTISRDNAKNTVYLQMNSLKPEDTAVYYCDAADGIIESDYWGQGTQVTVSS”, the entry is “low polyreactivity”; as for “QVQLVESGGGLVQAGGSLRLRCAASGRILWWYAMGWYRQAPGKERELVATITYSGGSTYADSVKGRFTISRDNAKNTVYLQMNSLKPEDTAVYYCAARLPLYYGKSDYWGQGTQVTVSS”, “high polyreactivity”; as for “QVQLVESGGGLVQAGGSLRLRCAASGRTFKPYVMGWNRQAPGKERELVAAISSRGGSTYYADSVKGRFTISRDNAKNTFYLQMNSLKPEDTAVYYCNAAYWFSNKYGYWGQGTQVTVAS”, “high polyreactivity”.
In the case of “QVQLVESGGGLVQAGGSLRLRCAASGRTFRYYAMGWYRQAPGKERELVAVINYRGGSTYYADSVKGRFTISRDNEKNTVYLQMNSLKPEDTAVYYCAAQYIGWHLYWYDYWGQGTQVTVSS”, the “polyreactivity (PSR sort gate)” value is recorded as “low polyreactivity”.
Turning to “QVQLVESGGGLVQAGGSLRLRCAASGRTFTYNAMVWYRQAPGKERELVPANNFSGVSTYYADSVKGRFTISRDNAKNTVYLQMNILKPEVTAVYYCAARGSARKSFPYPLEYWGQGTQVTVSS”, the “polyreactivity (PSR sort gate)” value is on record as “high polyreactivity”.
With “QVQLVESGGGLVQAGGSLRLRCAASGSIFTDYAMGGYRQAPGKERELVAVIDIDGSTYYADSVKGRFTISRDNAKNTVYLQMNSLKPEDTAVYDCAAGYTYYSLYGYWGQGTQVTGSS” the entry was “low polyreactivity”; with “QVQLVESGGGLVQAGGSLRLRCAASGSIFTWYAMGWYRQAPAKERELVAAITRGGSTSADSVKGRFTISRDNAKNTVYLQMNSLKPEYTAVYYCNAVYGVYDFNYWGQGTQVTVSS”, “low polyreactivity”; with “QVQLVESGGGLVQAGGSLRLRCAASGSIFVYNARGWYRPAPGKERELVPAISKSGGRTYYADSVKGRFTISRDNAKNTVYCQMHSLKPEDTAVYYCNALAGQRQGWEYDYWGQGTQVTVSS”, “high polyreactivity”.
“QVQLVESGGGLVQAGGSLRLRCAASGSIFYLYAMGWFRRAPGKERELVAASSRSGASTYYADSVKGRFTISRDNAKNTVYLQMNSLKPEDTAVYYGAADYNSQLARIYDYWGQGTQVTVSS”: the “polyreactivity (PSR sort gate)” value is “low polyreactivity”.
